Assay results published in US20180214514A1 (GEORGETOWN UNIVERSITY, published 2018).

B1: MBP-tagged C66 fusion protein (C-terminal 66-amino acid FGF-binding domain of human BP3) (other, not shown: large carriers)
chain: APPKENPSERKTNEGKRKAALVPNEERPMGTGPDPDGLDGNAELTETYCAEKWHSLCNFFVNFWNG
notes: MBP fusion with an apparent molecular mass of 52 kDa; also called C66 fragment; C-terminal hBP3 region
B2: human recombinant FGFR1 Fc chimera (Fc fusion, UniProt P11362 22-376, looked up)
chain: RPSPTLPEQAQPWGAPVEVESFLVHPGDLLQLRCRLRDDVQSINWLRDGVQLAESNRTRITGEEVEVQDSVPADSGLYACVTSSPSGSDTTYFSVNVSDALPSSEDDDDDDDSSSEEKETDNTKPNRMPVAPYWTSPEKMEKKLHAVPAAKTVKFKCPSSGTPNPTLRWLKNGKEFKPDHRIGGYKVRYATWSIIMDSVVPSDKGNYTCIVENEYGSINHTYQLDVVERSPHRPILQAGLPANKTVALGSNVEFMCKVYSDPQPHIQWLKHIEVNGSKIGPDNLPYVQILKTAGVNTTDKEMEVLHLRNVSFEDAGEYTCLAGNSIGLSHHSAWLTVLEALEERPAVMTSPLYLE
notes: It was immobilized on a CM-5 SPR chip; not shown: Fc part of the chimera

Assays:
[1] = target: T1, human recombinant FGFR4 Fc Chimera (human, UniProt P22455 22-369); assay: SPR, C66 over immobilized FGFR4 (FIG. 7B)
T1 construct: Bought reagent; It was immobilized on ELISA plates and on a CM-5 SPR chip; also called FGF Receptor 4; fibroblast growth factor receptor 4; Fc part of the bought chimera not given
Description: (§1) Biacore T200 instrument (GE Healthcare) was used for surface plasmon resonance measurements. Human recombinant FGFR4 or FGFR1 Fc chimera in HBS-P buffer (0.01 M HEPES pH 7.4, 0.15 M NaCl, 0.05% P-20) were immobilized on a flow cell of a CM-5 sensor chip (GE Healthcare, Piscataway, N.J.) via amine coupling. A blank flow cell was used as a negative control for non-specific binding to the sensor surface. […] Dissociation constants were calculated from the association and dissociation rates of the proteins after washing. The experiments were performed in triplicate.

[2] = target: B2; assay: SPR, equilibrium binding to immobilized FGFR1 Fc chimera (FIG. 7C)
Description: as §1

human recombinant FGF19 = target: T2, human recombinant FGF19 (human, UniProt O95750 25-216); assay: SPR, C66 over immobilized FGF19 (FIG. 7B)
T2 construct: Bought recombinant protein; also called fibroblast growth factor 19
T2 sequence (O95750 25-216 limits assumed): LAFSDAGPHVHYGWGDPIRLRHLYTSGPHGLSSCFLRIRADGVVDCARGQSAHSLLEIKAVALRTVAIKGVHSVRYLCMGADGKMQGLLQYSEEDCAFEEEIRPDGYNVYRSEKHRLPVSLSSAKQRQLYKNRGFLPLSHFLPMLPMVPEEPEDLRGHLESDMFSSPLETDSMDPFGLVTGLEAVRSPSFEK

[3] = target: T3, MBP-tagged recombinant human FGFBP3 (MBP-BP3) (human, UniProt P0AEX9 27-392 = MBP, limits assumed); assay: SPR, BP3 over immobilized FGFR1 Fc chimera (FIG. 6B)
T3 construct: Bacterially expressed MBP fusion; The order MBP then BP3 follows the pMAL-p2X vector design; also called hBP3
Description: as §1

Binder | binding result [1] | binding result [2] | binding result (human recombinant FGF19) | binding result [3]
B1 | no binding (tested: 245 nM) | no binding (tested: 245 nM) | binds | 
B2 |  |  |  | no binding (tested: 4, 2, or 1 nM)
